# Assay results published in article PMC4013091, “Stabilization and Augmentation of Circulating AIM in Mice by Synthesized IgM-Fc” (PLoS ONE, 2014).
# “And” between values parts separate entries of the source, which are not always exact repeats. Identical values can stand only once.
# T1: human recombinant AIM (apoptosis inhibitor of macrophage) (human, UniProt O43866 20-347)
# T1 construct: also called human rAIM; rAIM; source: purified recombinant
# T1 sequence (looked up): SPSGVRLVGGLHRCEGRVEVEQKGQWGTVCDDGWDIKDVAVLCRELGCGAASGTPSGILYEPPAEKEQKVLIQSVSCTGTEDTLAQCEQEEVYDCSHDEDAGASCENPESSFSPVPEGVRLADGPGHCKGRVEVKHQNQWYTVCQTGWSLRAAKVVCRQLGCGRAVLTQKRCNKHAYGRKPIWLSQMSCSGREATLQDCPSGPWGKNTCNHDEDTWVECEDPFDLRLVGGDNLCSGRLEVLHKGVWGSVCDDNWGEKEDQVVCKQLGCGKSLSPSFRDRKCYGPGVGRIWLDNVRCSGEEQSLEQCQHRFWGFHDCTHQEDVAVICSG
# B1: monomeric human IgM-Fc (CH2-CH3-CH4) with a C-terminal Myc tag (domain or fragment)
# chain: IAELPPKVSVFVPPRDGFFGNPRKSKLICQATGFSPRQIQVSWLREGKQVGSGVTTDQVQAEAKESGPTTYKVTSTLTIKESDWLGQSMFTCRVDHRGLTFQQNASSMCVPDQDTAIRVFAIPPSFASIFLTKSTKLTCLVTDLTTYDSVTISWTRQNGEAVKTHTNISESHPNATFSAVGEASICEDDWNSGERFTCTVTHTDLPSPLKQTISRPKGVALHRPDVYLLPPAREQLNLRESATITCLVTGFSPADVFVQWMQRGQPLSPEKYVTSAPMPEPQAPGRYFAHSILTVSEEEWNTGETYTCVVAHEALPNRVTERTVDKSTGKPTLYNVSLVMSDTAGTCY
# modifications: Disulfide-linked dimer of the mu Fc chain (~100-110 kDa), N-glycosylated (HEK293T). C-terminal Myc tag, which blocks pentamer formation, omitted. Limits not printed: CH2 start by domain convention. …
# B2: endogenous mouse AIM in serum (natural protein)
# chain: ESPTKVQLVGGAHRCEGRVEVEHNGQWGTVCDDGWDRRDVAVVCRELNCGAVIQTPRGASYQPPASEQRVLIQGVDCNGTEDTLAQCELNYDVFDCSHEEDAGAQCENPDSDLLFIPEDVRLVDGPGHCQGRVEVLHQSQWSTVCKAGWNLQVSKVVCRQLGCGRALLTYGSCNKNTQGKGPIWMGKMSCSGQEANLRSCLLSRLENNCTHGEDTWMECEDPFELKLVGGDTPCSGRLEVLHKGSWGSVCDDNWGEKEDQVVCKQLGCGKSLHPSPKTRKIYGPGAGRIWLDDVNCSGKEQSLEFCRHRLWGYHDCTHKEDVEVICTDFDV
# B3: HA-tagged human AIM (natural protein)
# chain: T1 sequence (looked up)
# Legend:
# [1] = molecular target: FL-hFc, human IgM-Fc with a FLAG tag on the N-terminus of the CH2 domain (human); experiment: non-reducing SDS-PAGE and western blot; culture supernatant of HEK293T cells transfected with pCAGGS-FL-hFc only, without IgJ
# [2] = molecular target: FL-hFc, human IgM-Fc with a FLAG tag on the N-terminus of the CH2 domain (human); experiment: non-reducing SDS-PAGE and western blot; culture supernatant of HEK293T cells co-transfected with FL-hFc and IgJ-Myc; blotted with anti-FLAG and anti-Myc antibodies
# [3] = molecular target: T1, human recombinant AIM (apoptosis …); experiment: SPR; Biacore 3000, 25°C; human rAIM covalently immobilised (2800 RU) on a CM5 chip; IgM-Fc monomer injected in 10 mM HEPES pH 7.4, 150 mM NaCl, 3 mM EDTA, 0.05% Tween-20 at 20 µL/min; 1:1 Langmuir model; apparent affinity; conditions: both partners purified
# [4] = molecular target: human IgM-Fc pentamer (FL-hFc) combined with IgJ-Myc (human) (UniProt P01591)
# Chain of human IgM-Fc pentamer (FL-hFc) combined with IgJ-Myc (human) (P01591 whole entry): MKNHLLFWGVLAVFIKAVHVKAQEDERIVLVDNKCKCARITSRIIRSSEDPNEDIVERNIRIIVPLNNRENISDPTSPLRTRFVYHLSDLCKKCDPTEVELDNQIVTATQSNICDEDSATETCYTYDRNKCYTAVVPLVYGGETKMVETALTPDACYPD
# [5] = molecular target: human IgM-Fc pentamer (FL-hFc) combined with IgJ-Myc (human) (UniProt P01591); remark: listed apart in the source
# [6] = molecular target: human IgM-Fc pentamer (FL-hFc) combined with IgJ-Myc (human) (UniProt P01591); experiment: sequential immunoaffinity co-purification; supernatant of co-cultured HEK 293T cells (hAIM-HA cells with FL-hFc and IgJ-Myc cells); anti-hAIM monoclonal antibody column, then anti-FLAG column; fractions blotted with anti-HA and anti-FLAG
molecule,measurement,setting,value
"FL-hFc, human IgM-Fc with a FLAG tag on the N-terminus of the CH2 domain (domain or fragment)",stoichiometry N,[1],5 and 6
same,stoichiometry N,[2],5
B1,Kd,[3],153 nM
same,koff,[3],0.00315 s⁻¹
same,kon,[3],20500 M⁻¹ s⁻¹
B2,"circulating mouse AIM level in Δsμ mice 24 h after i.v. injection of 1 mg FL-hFc, as percent of that in the wild-type mouse (immunoblot of serum)",[4],35%
B3,half-life of hAIM in the blood of wild-type mice after i.v. injection of 100 µg hFc-AIM complex (less than 2 h for hAIM alone),[5],12 h
same,mass of hAIM in 100 µg of the purified hFc-AIM complex,[6],20 µg
